Results on one molecule are retold here after patent publication US7718626B2, “ErbB3 binding protein compositions and methods of use” (University of Maryland, Baltimore, priority 2005, dated 2010).

For one assay, the system named is LNCaP cells. The assay can be described thus: Cell growth in complete media. The class given is cell-based, human. On the procedure: Cell Growth Assays: To measure growth in complete media, cells (2×10^4) were seeded in triplicate in individual wells of 12-well tissue culture plates in RPMI-1640 with 10% FBS and cultured for the indicated number of days. Cells were trypsinized, stained with Trypan Blue (0.4%), and counted in a hemacytometer. For soft agar growth assays, increasing concentrations of cells (as indicated) were plated in 35 mm petri dishes in complete media and 0.3% Difco Bacto Agar over an 0.5% agar layer. Colonies were counted after 10 days of incubation. For studies assessing the effect of dihydrotestosterone (DHT) on cell growth, cells (2×10^4) were plated in 12-well plates in complete media. After a 24-hour attachment period, the medium was replaced with steroid-free medium [phenol red-free RPMI 1640 and 5% charcoal-stripped FBS (Sigma)] for 48 hours. The final concentration of testosterone in the steroid-reduced media was less than 5 pM. After 48 hours of steroid depletion, cells were re-fed with fresh steroid-reduced medium with or without the indicated concentrations of DHT and/or bicalutamide (10 μM), and total cell numbers were assessed 7 days later.
Growth Characteristics of LNCaP ebp1 transfectants: The growth rate of the ebp1-transfected cells in complete media was compared to that of cells transfected with the empty vector. […]

Assay [1] relates to AR-regulated gene mRNA in LNCaP cells. The assay can be described thus: Real-time quantitative reverse-transcription PCR of LNCaP ebp1 transfectants. The class given is cell-based, human. Here is the method: Real-Time Quantitative Reverse-Transcription PCR: The method of […] et al. (Nakanishi et al., 2003, Quantitative Analysis of Breast Cancer Resistance Protein and Cellular Resistance to Flavopiridol in Acute Leukemia Patients, Clin. Cancer Res., 9: 3320-3328) was used as previously described. […] Real-time quantitative RT-PCR was then performed on the LightCycler (Roche, Indianapolis, Ind.) platform to determine the relative mRNA levels of Ebp1, AR, kallikrein-2 and POV-1. The following forward and reverse primers were selected using Primer Express software and synthesized by Core Laboratory of University of Maryland School of Medicine: Ebp1, sense: […] [NT] ID NO: 6) and antisense: 5° […] ID NO: 7), Kallikrein-2, sense: [NT] ID NO: 8) and antisense: [NT] ID NO: 9), POV-1, sense: [NT] ID NO: 10) and antisense: [NT] ID NO: 11), Actin, sense: [NT] ID NO: 12) and antisense […] ID NO: 13). An SRBR Green PCR Kit was used (Applied Biosystems, Foster City, Calif.), and the analyses were performed in duplicate or triplicate in a total volume of 15 μl including 0.9 μl of 25 mM MgCl2, 1.5 μl SYBR Green I, 0.3 μl Enzyme Mix, 0.75 μl of each primer (50 ng/μl), and 2 μl of cDNA synthesized with random hexamers. Target mRNA values were normalized using actin mRNA as an internal control. The relative quantitation of gene expression was performed using the comparative ΔΔ Ct (threshold method) using β-actin as an internal control ([…] et al., 2002, The Nonsteroidal Anti-Inflammatory Drug Sulindac Causes Down-Regulation of Signal Transducer and Activator of Transcription 3 in Human Oral Squamous Cell Carcinoma Cells, Cancer Research, 62:1004-1007). The results of the microarray analysis were validated using real-time quantitative reverse-transcription PCR, Western blot, and ELISA methods. […] The expression of POV-1 mRNA and protein were each decreased about two-fold. PSA secretion in the conditioned media of ebp1 and vector control cells was assessed by ELISA. […] Finally, […]-2 mRNA expression was decreased approximately 40%.

B1: Ebp1: ErbB3 binding protein (SEQ ID NO: 2), tested by stable ectopic expression (ebp1 transfection) in LNCaP cells (protein)
chain: MSGEDEQQEQTIAEDLVVTKYKMGGDIANRVLRSLVEASSSGVSVLSLCEKGDAMIMEETGKIFKKEKEMKKGIAFPTSISVNNCVCHFSPLKSDQDYILKEGDLVKIDLGVHVDGFIANVAHTFVVDVAQGTQVTGRKADVIKAAHLCAEAALRLVKPGNQNTQVTEAWNKVAHSFNCTPIEGMLSHQLKQHVIDGEKTIIQNPTDQQKKDHEKAEFEVHEVYAVDVLVSSGEGKAKDAGQRTTIYKRDPSKQYGLKMKTSRAFFSEVERRFDAMPFTLRAFEDEKKARMGVVECAKHELLQPFNVLYEKEGEFVAQFKFTVLLMPNGPMRITSGPFEPDLYKSEMEVQDAELKALLQSSASRKTQKKKKKKASKTAENPTSGETLEENEAGD
modifications: Homo Sapien
Regarding B1, the “growth rate in complete media” value in the assay with LNCaP cells (ebp1 transfectants vs vector control, p<0.05) was “significantly decreased”. This molecule yielded a doubling time with LNCaP cells (ebp1 transfectants, complete media (vector control 48 hours)) of 72 h. Further, in assay [1], the “POV-1 mRNA decrease” value was “about two-fold” and the “kallikirein-2 mRNA expression decrease” value is “approximately 40%”. For the same molecule, the “AR mRNA down-regulation” value in assay [1] (real-time PCR) is listed as “more than 2 fold”.
